T1: recombinant biotinylated human BCMA (human, UniProt Q02223 1-54, biotinylated)
T1 construct: Soluble labelled reagent, detected with streptavidin-APC; also called recombinant BCMA; biotinylated BCMA
T1 sequence (looked up): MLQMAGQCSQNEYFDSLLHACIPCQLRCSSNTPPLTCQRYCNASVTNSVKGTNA

B1: anti-BCMA CAR of CTX-154 (BCMA-2: CD8[signal peptide]-VL-linker-VH-CD8[tm]-CD28[co-stimulatory domain]-CD3z) (other)
chain: DIVMTQSQRFMTTSVGDRVSVTCKASQSVDSNVAWYQQKPRQSPKALIFSASLRFSGVPARFTGSGSGTDFTLTISNLQSEDLAEYFCQQYNNYPLTFGAGTKLELKGGGGSGGGGSGGGGSGQVQLQQSGGGLVQPGGSLKLSCAASGIDFSRYWMSWVRRAPGKGLEWIGEINPDSSTINYAPSLKDKFIISRDNAKNTLYLQMSKVRSEDTALYYCASLYYDYGDAMDYWGQGTSVTVSSSAAAFVPVFLPAKPTTTPAPRPPTPAPTIASQPLSLRPEACRPAAGGAVHTRGLDFACDIYIWAPLAGTCGVLLLSLVITLYCNHRNRSKRSRLLHSDYMNMTPRRPGPTRKHYQPYAPPRDFAAYRSRVKFSRSADAPAYQQGQNQLYNELNLGRREEYDVLDKRRGRDPEMGGKPRRKNPQEGLYNELQKDKMAEAYSEIGMKGERRRGKGHDGLYQGLSTATKDTYDALHMQALPPR
notes: CAR on edited primary human T cells, co-expressed with GFP from a bicistronic 2A mRNA; also called BCMA-2 CAR
B2: anti-BCMA CAR of CTX-152 (BCMA-1: CD8[signal peptide]-VH-linker-VL-CD8[tm]-CD28[co-stimulatory domain]-CD3z) (other)
chain: QVQLQQSGGGLVQPGGSLKLSCAASGIDFSRYWMSWVRRAPGKGLEWIGEINPDSSTINYAPSLKDKFIISRDNAKNTLYLQMSKVRSEDTALYYCASLYYDYGDAMDYWGQGTSVTVSSGGGGSGGGGSGGGGSGDIVMTQSQRFMTTSVGDRVSVTCKASQSVDSNVAWYQQKPRQSPKALIFSASLRFSGVPARFTGSGSGTDFTLTISNLQSEDLAEYFCQQYNNYPLTFGAGTKLELKSAAAFVPVFLPAKPTTTPAPRPPTPAPTIASQPLSLRPEACRPAAGGAVHTRGLDFACDIYIWAPLAGTCGVLLLSLVITLYCNHRNRSKRSRLLHSDYMNMTPRRPGPTRKHYQPYAPPRDFAAYRSRVKFSRSADAPAYQQGQNQLYNELNLGRREEYDVLDKRRGRDPEMGGKPRRKNPQEGLYNELQKDKMAEAYSEIGMKGERRRGKGHDGLYQGLSTATKDTYDALHMQALPPR
notes: CAR on edited primary human T cells, co-expressed with GFP from a bicistronic 2A mRNA; also called BCMA-1 CAR
B3: anti-BCMA CAR of CTX-160 (CD28 co-stimulatory domain) (other)
chain: EVQLVESGGGLVQPGGSLKLSCAASGIDFSRYWMSWVRQAPGKGLEWIGEINPDSSTINYADSVKGRFTISRDNAKNTLYLQMNLSRAEDTALYYCASLYYDYGDAMDYWGQGTLVTVSSGGGGSGGGGSGGGGSDIQMTQSPSSLSASVGDRVTITCRASQSVDSNVAWYQQKPEKAPKSLIFSASLRFSGVPSRFSGSGSGTDFTLTISSLQPEDFATYYCQQYNSYPLTFGAGTKLEIKSAAAFVPVFLPAKPTTTPAPRPPTPAPTIASQPLSLRPEACRPAAGGAVHTRGLDFACDIYIWAPLAGTCGVLLLSLVITLYCNHRNRSKRSRLLHSDYMNMTPRRPGPTRKHYQPYAPPRDFAAYRSRVKFSRSADAPAYQQGQNQLYNELNLGRREEYDVLDKRRGRDPEMGGKPRRKNPQEGLYNELQKDKMAEAYSEIGMKGERRRGKGHDGLYQGLSTATKDTYDALHMQALPPR
notes: CAR on edited primary human T cells; also called anti-BCMA (CD28) CAR
B4: anti-BCMA CAR of CTX-160b (4-1BB co-stimulatory domain) (other)
chain: EVQLVESGGGLVQPGGSLKLSCAASGIDFSRYWMSWVRQAPGKGLEWIGEINPDSSTINYADSVKGRFTISRDNAKNTLYLQMNLSRAEDTALYYCASLYYDYGDAMDYWGQGTLVTVSSGGGGSGGGGSGGGGSDIQMTQSPSSLSASVGDRVTITCRASQSVDSNVAWYQQKPEKAPKSLIFSASLRFSGVPSRFSGSGSGTDFTLTISSLQPEDFATYYCQQYNSYPLTFGAGTKLEIKSAAAFVPVFLPAKPTTTPAPRPPTPAPTIASQPLSLRPEACRPAAGGAVHTRGLDFACDIYIWAPLAGTCGVLLLSLVITLYCNHRNRKRGRKKLLYIFKQPFMRPVQTTQEEDGCSCRFPEEEEGGCELRVKFSRSADAPAYQQGQNQLYNELNLGRREEYDVLDKRRGRDPEMGGKPRRKNPQEGLYNELQKDKMAEAYSEIGMKGERRRGKGHDGLYQGLSTATKDTYDALHMQALPPR
notes: CAR on edited primary human T cells; also called anti-BCMA (4-1BB) CAR
B5: anti-BCMA CAR of CTX-166 (CD28 co-stimulatory domain) (other)
chain: QVQLVQSGAELKKPGASVKVSCKASGNTLTNYVIHWVRQAPGQRLEWMGYILPYNDLTKYSQKFQGRVTITRDKSASTAYMELSSLRSEDTAVYYCTRWDWDGFFDPWGQGTTVTVSSGGGGSGGGGSGGGGSEIVMTQSPATLSVSPGERASISCRASQSLVHSNGNTHLHWYQQRPGQAPRLLIYSVSNRFSEVPARFSGSGSGTDFTLTISSVESEDFAVYYCSQTSHIPYTFGGGTKLEIKSAAAFVPVFLPAKPTTTPAPRPPTPAPTIASQPLSLRPEACRPAAGGAVHTRGLDFACDIYIWAPLAGTCGVLLLSLVITLYCNHRNRSKRSRLLHSDYMNMTPRRPGPTRKHYQPYAPPRDFAAYRSRVKFSRSADAPAYQQGQNQLYNELNLGRREEYDVLDKRRGRDPEMGGKPRRKNPQEGLYNELQKDKMAEAYSEIGMKGERRRGKGHDGLYQGLSTATKDTYDALHMQALPPR
notes: as for B3
B6: anti-BCMA CAR of CTX-166b (4-1BB co-stimulatory domain) (other)
chain: QVQLVQSGAELKKPGASVKVSCKASGNTLTNYVIHWVRQAPGQRLEWMGYILPYNDLTKYSQKFQGRVTITRDKSASTAYMELSSLRSEDTAVYYCTRWDWDGFFDPWGQGTTVTVSSGGGGSGGGGSGGGGSEIVMTQSPATLSVSPGERASISCRASQSLVHSNGNTHLHWYQQRPGQAPRLLIYSVSNRFSEVPARFSGSGSGTDFTLTISSVESEDFAVYYCSQTSHIPYTFGGGTKLEIKSAAAFVPVFLPAKPTTTPAPRPPTPAPTIASQPLSLRPEACRPAAGGAVHTRGLDFACDIYIWAPLAGTCGVLLLSLVITLYCNHRNRKRGRKKLLYIFKQPFMRPVQTTQEEDGCSCRFPEEEEGGCELRVKFSRSADAPAYQQGQNQLYNELNLGRREEYDVLDKRRGRDPEMGGKPRRKNPQEGLYNELQKDKMAEAYSEIGMKGERRRGKGHDGLYQGLSTATKDTYDALHMQALPPR
notes: as for B4

What follows are binders tested against T1, recombinant biotinylated human BCMA (assay: flow cytometry, recombinant BCMA on CAR-T cells).
Experimental: Allogeneic anti-BCMA CAR T cells were generated as described above. Anti-BCMA CAR expression was measured by determining the percent of cells that bound biotinylated BCMA subsequently detected by FACS using streptavidin-APC (FIG. 47).
Figure 48: FIG. 48 is a graph showing anti-BCMA CAR expression. Allogeneic CAR T cells were generated as previously described. Anti-BCMA CAR expression was measured by determining the percent of cells that bound biotinylated recombinant human BCMA subsequently detected by FACS using streptavidin-APC. […] CAR constructs were evaluated for their ability to kill RPMI-8226 cells. […] Following enrichment/purification, greater than 99.5% of the gene edited cells are TCR negative.

binding result | Binder
binds | B1
binds | B2

What follows are binders tested against T1, recombinant biotinylated human BCMA (assay: flow cytometry, biotinylated BCMA on CAR-T cells detected with streptavidin-APC).
Experimental: Allogeneic TRAC−/B2M−/anti-BCMA CAR T+ cells were generated, as described above, having either a CD28 co-stimulatory domain (encoded by CTX-160 or CTX-166) or a 4-1BB co-stimulatory domain (encoded by CTX160b or CTX166b). Anti-BCMA CAR expression was measured by determining the percent of cells that bound biotinylated BCMA subsequently detected by FACS using streptavidin-APC (FIG. 67). Greater than 60% of the cells expressed the CAR at the cell surface.

percent of cells that bound biotinylated BCMA [%] | Binder
> 60 | B3
> 60 | B4
> 60 | B5
> 60 | B6
